Data taken from US20180171001A1.

How the values were obtained:
Test in all cases: cell-based or functional assay
[1] = target: Env of HIV-1 strain 231965.c1 (HIV-1)
[2] = target: Env of HIV-1 strain Du172.17 (HIV-1)
[3] = target: Env of HIV-1 strain PVO.4 (HIV-1)
[4] = target: Env of HIV-1 strain 3365.v2.c20 (HIV-1)
[5] = target: Env of HIV-1 strain H086.8 (HIV-1)
[6] = target: Env of HIV-1 strain 3016.v5.c45 (HIV-1)
[7] = target: Env of HIV-1 strain 251-18 (HIV-1)
[8] = target: Env of MuLV
[9] = target: Env of HIV-1 strain ZM109F.PB4 (HIV-1)
[10] = target: Env of HIV-1 strain R1166.c1 (HIV-1)
[11] = target: Env of HIV-1 strain REJO4541.67 (HIV-1)
[12] = target: Env of HIV-1 strain 250-4 (HIV-1)
[13] = target: Env of HIV-1 strain 3415.v1.c1 (HIV-1)
[14] = target: Env of HIV-1 strain YU2.DG (HIV-1)
[15] = target: Env of HIV-1 strain X1254_c3 (HIV-1)
[16] = target: Env of HIV-1 strain ZM53M.PB12 (HIV-1)

| Binder | neutralization IC50 [1] | neutralization IC50 [2] | neutralization IC50 [3] | neutralization IC50 [4] | neutralization IC50 [5] | neutralization IC50 [6] | neutralization IC50 [7] | neutralization IC50 [8] | neutralization IC50 [9] | neutralization IC50 [10] | neutralization IC50 [11] | neutralization IC50 [12] | neutralization IC50 [13] | neutralization IC50 [14] | neutralization IC50 [15] | neutralization IC50 [16] |
| --- | --- | --- | --- | --- | --- | --- | --- | --- | --- | --- | --- | --- | --- | --- | --- | --- |
| γ44κ11 (antibody, V domains shown) VH: QIHLVQSGTEVKKPGSSVTVSCKAYEVNTFGLYAVNWVRQAPGQSLEYIGQIWRWKSSASHHFRGRVLISAVDLTGSSPPISSLEIKNVTSDDTAVYFCTTTSTHDKWSGLHHDGVMAFSSWGQGTLISVSA VL: DIQMTQSPSTLSASVGGTVRISCRASQSITGGWLAWYHQRPGKAPRLLIYRGSRLLGGVPSRFSGSAAGTDFTLTIANLQAEDFGTFYCQQYDTYPGTFGQGTKVEVKR | > 15 µg/mL | > 15 µg/mL | > 15 µg/mL | > 15 µg/mL | > 15 µg/mL | > 15 µg/mL | > 15 µg/mL | > 19 µg/mL | > 15 µg/mL | > 15 µg/mL | > 15 µg/mL | > 15 µg/mL | > 15 µg/mL | > 15 µg/mL | > 15 µg/mL | > 15 µg/mL |
| γ4κ18 (antibody, V domains shown) VH: QIHLVQSGTEVKKPGSSVTVSCKAYGVNTFGLYAVNWVRQAPGQSLEYIGQIWRWKSSASHHFRGRVIISAVDLTGSSPPISPLEIKNLTSDDTAVYFCTTTSTSDRWSGLHHDGVMAFSSWGQGTLISVSA VL: DIQMTQSPSTLSASVGDTVRISCRASQSITGGWLAWYHQRPGKAPRLLIYRGSRLLGGVPSRFSGSAAGADFTLTIANLQAEDFGTFYCQQYDTYPGTFGQGTKVEVKR | > 15 µg/mL | > 15 µg/mL | > 15 µg/mL | > 15 µg/mL | > 15 µg/mL | > 15 µg/mL | > 15 µg/mL | > 30 µg/mL | > 15 µg/mL | > 15 µg/mL | > 15 µg/mL | > 15 µg/mL | > 15 µg/mL | > 15 µg/mL | 16.2 µg/mL | > 15 µg/mL |
| γ59κ11 (antibody, V domains shown) VH: QIHLVQSGTEVKKPGSSVTVSCKAYGVNTFGLYAVNWVRQAPGQGLEYIGQIWRWKSSASHHFRGRVLISAVDLTGSSPPISSLEIKNVTSDDTAVYFCTTTSTYDEWSDLHHDGVMAFSSWGQGTLISVSA VL: DIQMTQSPSTLSASVGGTVRISCRASQSITGGWLAWYHQRPGKAPRLLIYRGSRLLGGVPSRFSGSAAGTDFTLTIANLQAEDFGTFYCQQYDTYPGTFGQGTKVEVKR | > 15 µg/mL | > 15 µg/mL | > 15 µg/mL | > 15 µg/mL | > 15 µg/mL | > 15 µg/mL | > 15 µg/mL | > 30 µg/mL | > 15 µg/mL | 12.6 µg/mL | 1.57 µg/mL | > 15 µg/mL | > 15 µg/mL | 6.91 µg/mL | 4.67 µg/mL | > 15 µg/mL |
| γ46κ11 (antibody, V domains shown) VH: QIHLVQSGTEVKKPGSSVTVSCKAYGVNTFGLYAVNWVRQAPGQGLEYIGQIWRWKSSASHHFRGRVLISAVDLTGSSPPISSLEIKNVTSDDTAVYFCTTTSTYDKWSGLHHDGVVAFSSWGQGTLISVSA VL: DIQMTQSPSTLSASVGGTVRISCRASQSITGGWLAWYHQRPGKAPRLLIYRGSRLLGGVPSRFSGSAAGTDFTLTIANLQAEDFGTFYCQQYDTYPGTFGQGTKVEVKR | 2.95 µg/mL | > 15 µg/mL | 2.92 µg/mL | > 15 µg/mL | > 15 µg/mL | 1.93 µg/mL | > 15 µg/mL | > 30 µg/mL | > 15 µg/mL | 3.39 µg/mL | > 15 µg/mL | > 15 µg/mL | > 15 µg/mL | 2.1 µg/mL | 5.68 µg/mL | > 15 µg/mL |
| γ23κ18 (antibody, V domains shown) VH: QIHLVQSGTEVKKPGSSVTVSCKAYGVNTFGLYAVNWVRQAPGQSLEYIGQIWRWKSSASHHFRGRVIISAVDLTGSSPPISSLEIKNLTSDDTAVYFCTTTSTSDYWSGLHHDGVMAFSSWGQGTLISVSA VL: DIQMTQSPSTLSASVGDTVRISCRASQSITGGWLAWYHQRPGKAPRLLIYRGSRLLGGVPSRFSGSAAGADFTLTIANLQAEDFGTFYCQQYDTYPGTFGQGTKVEVKR | 0.128 µg/mL | 2.95 µg/mL | 0.047 µg/mL | > 15 µg/mL | > 15 µg/mL | 0.047 µg/mL | 1.58 µg/mL | > 30 µg/mL | > 15 µg/mL | 0.708 µg/mL | 0.061 µg/mL | > 15 µg/mL | > 15 µg/mL | 0.117 µg/mL | 0.545 µg/mL | > 15 µg/mL |
| γ3κ18 (antibody, V domains shown) VH: QIHLVQSGTEVKKPGSSVTVSCKAYGVNTFGLYAVSWVRQAPGQRLEYIGQIRRWKSSASHHFRGRVTVSAVDPTGSSPPISSLEIRDLTTDDTAVYFCTTTSTSDYWSGLHNERGTAFSSWGQGTLISVSA VL: DIQMTQSPSTLSASVGDTVRISCRASQSITGGWLAWYHQRPGKAPRLLIYRGSRLLGGVPSRFSGSAAGADFTLTIANLQAEDFGTFYCQQYDTYPGTFGQGTKVEVKR | 0.163 µg/mL | 11.5 µg/mL | 0.028 µg/mL | > 15 µg/mL | 0.209 µg/mL | 0.057 µg/mL | > 15 µg/mL | > 30 µg/mL | > 15 µg/mL | 0.578 µg/mL | 0.049 µg/mL | > 15 µg/mL | > 15 µg/mL | 0.07 µg/mL | 0.616 µg/mL | > 15 µg/mL |
| γ22κ18 (antibody, V domains shown) VH: QIHLVQSGTEVKKPGSSVTVSCKAYGVNTFGLYAVNWVRQAPGQSLEYIGQIWRWKSSASHHFRGRVLISAVDLTGPSPPISSLEIKNLTSDDTAVYFCTTTSTYDKWSGLHHDGVMAFSSWGQGTLISVSA VL: DIQMTQSPSTLSASVGDTVRISCRASQSITGGWLAWYHQRPGKAPRLLIYRGSRLLGGVPSRFSGSAAGADFTLTIANLQAEDFGTFYCQQYDTYPGTFGQGTKVEVKR | 26 µg/mL | > 15 µg/mL | > 15 µg/mL | > 15 µg/mL | > 15 µg/mL | 13.3 µg/mL | > 15 µg/mL | > 30 µg/mL | > 15 µg/mL | 7.31 µg/mL | > 15 µg/mL | > 15 µg/mL | > 15 µg/mL | 8.23 µg/mL | 1.58 µg/mL | > 15 µg/mL |
| γ20κ18 (antibody, V domains shown) VH: QIHLVQSGTEVKKPGSSVAVSCKAYGVNTFGLYAVNWVRQAPGQSLEYIGQIWRWKSSASHDFRGRVIISAVDLTGSSPPISSLEIKNLTSDDTAVYFCTATSTPDYWSGLHHDGVMAFSSWGQGTLISVSA VL: DIQMTQSPSTLSASVGDTVRISCRASQSITGGWLAWYHQRPGKAPRLLIYRGSRLLGGVPSRFSGSAAGADFTLTIANLQAEDFGTFYCQQYDTYPGTFGQGTKVEVKR | > 15 µg/mL | > 15 µg/mL | > 15 µg/mL | > 15 µg/mL | > 15 µg/mL | > 15 µg/mL | > 15 µg/mL | > 30 µg/mL | > 15 µg/mL | 20 µg/mL | > 15 µg/mL | > 15 µg/mL | > 15 µg/mL | > 15 µg/mL | 5.22 µg/mL | > 15 µg/mL |
| γ52κ11 (antibody, V domains shown) VH: QIHLVQSGTEVKKPGSSVTVSCKAYGVNTFGLYAVNWVRQAPGQSLEYIGQIWRWKSSASHHFRGRVLISAVDLTGSSPPISSLEIKNLTSDDTAVYFCTTTSTYDRWSGLHHDGVMAFSSWGQGTLISVSA VL: DIQMTQSPSTLSASVGGTVRISCRASQSITGGWLAWYHQRPGKAPRLLIYRGSRLLGGVPSRFSGSAAGTDFTLTIANLQAEDFGTFYCQQYDTYPGTFGQGTKVEVKR | 0.298 µg/mL | > 15 µg/mL | 0.103 µg/mL | > 15 µg/mL | 1.64 µg/mL | 0.161 µg/mL | 0.647 µg/mL | > 30 µg/mL | > 15 µg/mL | 1.16 µg/mL | 3.47 µg/mL | > 15 µg/mL | > 15 µg/mL | 0.298 µg/mL | 2.42 µg/mL | > 15 µg/mL |
